In paper PMC11414716, “Structural insights into polyamine spermidine uptake by the ABC transporter PotD-PotABC” (Science Advances, 2024):

T1: PotD (wild type), spermidine-binding protein (E. coli K12, UniProt P0AFK9 24-348)
T1 construct: expressed from the entire potABCD operon; Hexahistidine tag is called noncleavable; also called PoD wild-type; source: E. coli C41, expressed from the potABCD operon with the tag on PotD; purified (Ni-NTA, Superose 6 SEC); in lysate for the co-purification attempt; not shown: His6, C-terminal, kept
T1 sequence (looked up): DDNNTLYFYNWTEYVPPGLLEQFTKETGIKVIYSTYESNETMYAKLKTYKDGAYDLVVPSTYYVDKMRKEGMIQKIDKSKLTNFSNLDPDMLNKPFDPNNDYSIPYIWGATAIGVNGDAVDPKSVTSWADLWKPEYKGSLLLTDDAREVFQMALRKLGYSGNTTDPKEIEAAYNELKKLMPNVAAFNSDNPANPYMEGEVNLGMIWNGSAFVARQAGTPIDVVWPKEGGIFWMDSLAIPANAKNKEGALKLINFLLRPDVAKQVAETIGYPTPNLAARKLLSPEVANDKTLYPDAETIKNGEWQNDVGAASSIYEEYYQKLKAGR

B1: PotB (natural protein, E. coli K12, UniProt P0AFK4 1-275, looked up)
chain: MIVTIVGWLVLFVFLPNLMIIGTSFLTRDDASFVKMVFTLDNYTRLLDPLYFEVLLHSLNMALIATLACLVLGYPFAWFLAKLPHKVRPLLLFLLIVPFWTNSLIRIYGLKIFLSTKGYLNEFLLWLGVIDTPIRIMFTPSAVIIGLVYILLPFMVMPLYSSIEKLDKPLLEAARDLGASKLQTFIRIIIPLTMPGIIAGCLLVMLPAMGLFYVSDLMGGAKNLLIGNVIKVQFLNIRDWPFGAATSITLTIVMGLMLLVYWRASRLLNKKVELE
notes: PotB, transmembrane subunit, E. coli K12; the entire potABCD operon was cloned; Subunit of the PotABC complexes, written alone for the pairs within the solved complexes; source: E. coli C41, co-expressed and purified as part of the PotABC complex (Ni-NTA, SEC in LMNG; wild-type complex also in nanodiscs)
B2: PotC (natural protein, E. coli K12, UniProt P0AFK6 1-264, looked up)
chain: MIGRLLRGGFMTAIYAYLYIPIIILIVNSFNSSRFGINWQGFTTKWYSLLMNNDSLLQAAQHSLTMAVFSATFATLIGSLTAVALYRYRFRGKPFVSGMLFVVMMSPDIVMAISLLVLFMLLGIQLGFWSLLFSHITFCLPFVVVTVYSRLKGFDVRMLEAAKDLGASEFTILRKIILPLAMPAVAAGWVLSFTLSMDDVVVSSFVTGPSYEILPLKIYSMVKVGVSPEVNALATILLVLSLVMVIASQLIARDKTKGNTGDVK
notes: PotC, transmembrane subunit, E. coli K12; the entire potABCD operon was cloned; Subunit of the PotABC complexes, written alone for the pairs within the solved complexes; That the tag sits on PotC is surmised; source: E. coli C41, co-expressed and purified as part of the PotABC complex (Ni-NTA, SEC in LMNG; wild-type complex also in nanodiscs); not shown: His6 (inferred on PotC: C-terminal tag of …)
B3: PotA (wild type) (natural protein, E. coli K12, UniProt P69874 1-378, looked up)
chain: MGQSKKLNKQPSSLSPLVQLAGIRKCFDGKEVIPQLDLTINNGEFLTLLGPSGCGKTTVLRLIAGLETVDSGRIMLDNEDITHVPAENRYVNTVFQSYALFPHMTVFENVAFGLRMQKTPAAEITPRVMEALRMVQLETFAQRKPHQLSGGQQQRVAIARAVVNKPRLLLLDESLSALDYKLRKQMQNELKALQRKLGITFVFVTHDQEEALTMSDRIVVMRDGRIEQDGTPREIYEEPKNLFVAGFIGEINMFNATVIERLDEQRVRANVEGRECNIYVNFAVEPGQKLHVLLRPEDLRVEEINDDNHAEGLIGYVRERNYKGMTLESVVELENGKMVMVSEFFNEDDPDFDHSLDQKMAINWVESWEVVLADEEHK
notes: PotA, cytosolic ATPase subunit, E. coli K12; the entire potABCD operon was cloned; Subunit of the wild-type PotABC complex solved in nanodiscs
B4: PotA E173Q (natural protein, E. coli K12, UniProt P69874 1-378, looked up)
chain: MGQSKKLNKQPSSLSPLVQLAGIRKCFDGKEVIPQLDLTINNGEFLTLLGPSGCGKTTVLRLIAGLETVDSGRIMLDNEDITHVPAENRYVNTVFQSYALFPHMTVFENVAFGLRMQKTPAAEITPRVMEALRMVQLETFAQRKPHQLSGGQQQRVAIARAVVNKPRLLLLDQSLSALDYKLRKQMQNELKALQRKLGITFVFVTHDQEEALTMSDRIVVMRDGRIEQDGTPREIYEEPKNLFVAGFIGEINMFNATVIERLDEQRVRANVEGRECNIYVNFAVEPGQKLHVLLRPEDLRVEEINDDNHAEGLIGYVRERNYKGMTLESVVELENGKMVMVSEFFNEDDPDFDHSLDQKMAINWVESWEVVLADEEHK
notes: PotA, cytosolic ATPase subunit (NBD and regulatory domain), E. coli K12; the entire potABCD operon was cloned; Subunit of m1, written alone for the pairs within the solved complexes; source: E. coli C41, co-expressed and purified as part of the PotABC E173Q complex (Ni-NTA, SEC in LMNG)

Experiments:
[1] = biological target: T1, PotD (wild type), spermidine-binding …; assay: cryo-EM structure; PotD-PotABC E173Q complex formed with Spd, ATP and Mg2+, in LMNG; Spd-bound pretranslocation state (3.1 Å) and ATP-bound translocation intermediate state (3 Å; dataset 2 with 3 mM Fos-Choline-8); conditions: both partners purified
[2] = biological target: the molecule itself; assay: cryo-EM structure; wild-type PotABC complex reconstituted into MSP1E3D1/asolectin nanodiscs, with ATP, Mg2+ and Spd; map at 3.5 Å
[3] = biological target: the molecule itself; assay: cryo-EM structure; PotD-PotABC E173Q complex formed with Spd, ATP and Mg2+, in LMNG; Spd-bound pretranslocation state (3.1 Å) and ATP-bound translocation intermediate state (3 Å; dataset 2 with 3 mM Fos-Choline-8)

| Binder | binding result [1] | further results |
| --- | --- | --- |
| B1 | binds |  |
| B2 | binds |  |
| B3 |  | binding result [2]: binds |
| B4 |  | stoichiometry N [3]: 2 |
